We go through 1 molecule from PMC10516938, “Conformational dynamics of cohesin/Scc2 loading complex are regulated by Smc3 acetylation and ATP binding” (Nature Communications, 2023).

Changes are numbered by the printed parent chain.

In assay [1] the target is T1, Smc3^QQ S72C (S. cerevisiae, UniProt P47037 1-1230, S72C | K112Q | K113Q).
T1 construct: Smc3, S. cerevisiae; source: S. cerevisiae W303, late G1 arrested cells, whole-cell extract
T1 sequence (looked up): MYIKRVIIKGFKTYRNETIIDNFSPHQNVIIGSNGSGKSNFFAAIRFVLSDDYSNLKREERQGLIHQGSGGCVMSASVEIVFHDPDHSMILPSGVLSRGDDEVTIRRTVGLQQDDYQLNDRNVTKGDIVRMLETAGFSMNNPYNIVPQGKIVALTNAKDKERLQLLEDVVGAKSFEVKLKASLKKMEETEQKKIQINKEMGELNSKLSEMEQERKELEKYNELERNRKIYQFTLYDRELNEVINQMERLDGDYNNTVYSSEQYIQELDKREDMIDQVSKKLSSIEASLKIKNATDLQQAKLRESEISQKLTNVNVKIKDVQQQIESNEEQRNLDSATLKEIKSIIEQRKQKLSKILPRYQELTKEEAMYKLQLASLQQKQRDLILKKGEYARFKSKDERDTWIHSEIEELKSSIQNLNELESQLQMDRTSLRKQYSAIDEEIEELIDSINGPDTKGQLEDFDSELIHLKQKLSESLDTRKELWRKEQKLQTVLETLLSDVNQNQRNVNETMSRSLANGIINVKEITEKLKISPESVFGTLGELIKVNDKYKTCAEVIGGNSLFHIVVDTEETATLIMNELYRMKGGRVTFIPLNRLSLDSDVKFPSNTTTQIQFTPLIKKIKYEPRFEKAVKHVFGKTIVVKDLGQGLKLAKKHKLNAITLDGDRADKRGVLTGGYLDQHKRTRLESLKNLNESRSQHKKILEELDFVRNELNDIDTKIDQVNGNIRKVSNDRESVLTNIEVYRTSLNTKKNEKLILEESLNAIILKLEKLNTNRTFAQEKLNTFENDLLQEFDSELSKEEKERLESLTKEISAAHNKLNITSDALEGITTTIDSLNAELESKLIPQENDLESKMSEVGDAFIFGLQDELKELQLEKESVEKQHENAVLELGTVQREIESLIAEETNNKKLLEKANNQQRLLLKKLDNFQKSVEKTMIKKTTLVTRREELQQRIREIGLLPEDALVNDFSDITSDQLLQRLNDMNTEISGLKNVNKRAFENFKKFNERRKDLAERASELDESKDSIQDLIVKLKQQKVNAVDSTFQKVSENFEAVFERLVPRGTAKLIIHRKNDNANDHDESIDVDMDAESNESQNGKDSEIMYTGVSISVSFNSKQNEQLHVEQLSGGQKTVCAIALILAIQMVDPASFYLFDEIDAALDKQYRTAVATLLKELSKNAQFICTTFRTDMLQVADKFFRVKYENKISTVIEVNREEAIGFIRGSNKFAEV
In words: cross-linking; in vivo BMOE cross-link of cysteine pairs in yeast cells arrested in late G1 by non-degradable Sic1(9m); Scc1-PK immunoprecipitated, western blot, band intensities quantified. The conditions noted are these: partners not purified. In general terms: Immunoblotting shows a protein as a band on a membrane.

Assay [2] concerns the target T2, Smc3 S72C E1155Q (S. cerevisiae, UniProt P47037 1-1230, S72C | E1155Q).
T2 construct: Smc3, S. cerevisiae; also called EQ mutant version of Smc3^S72C; source: S. cerevisiae W303, ectopically expressed, late G1 arrested cells, whole-cell extract
T2 sequence (looked up): T1 sequence (looked up) with Q112K, Q113K, E1155Q
The description is as above. Conditions: partners not purified.

B1: Scc2 E819C (natural protein, S. cerevisiae, UniProt Q04002 1-1493, looked up)
chain: MSYPGKDKNIPGRIIEALEDLPLSYLVPKDGLAALVNAPMRVSLPFDKTIFTSADDGRDVNINVLGTANSTTSSIKNEAEKERLVFKRPSNFTSSANSVDYVPTNFLEGLSPLAQSVLSTHKGLNDSINIEKKSEIVSRPEAKHKLESVTSNAGNLSFNDNSSNKKTKTSTGVTMTQANLAEQYLNDLKNILDIVGFDQNSAEIGNIEYWLQLPNKKFVLTTNCLTKLQMTIKNITDNPQLSNSIEITWLLRLLDVMVCNIKFSKSSLKMGLDDSMLRYIALLSTIVLFNIFLLGKNDSNLHRESYIMEPVNFLSDLIESLKILTIEYGSLKIEFDTFQEALELLPKYIRNGPFLDDNVTAKLVYIFSDLLMNNDIEATTNIQFQSFWDNVKRISSDILVSLFGSFDQQRGFIIEELLSHIEKLPTKRIQKKLRKVGNQNIYITDFTFTLMSMLENINCYSFCNQMKDIAPENIDLLKNEYKKQEEFLFNIVEHINDTILERFFKNPSALRYVIDNFVQDLLLLISSPQWPVTEKILSSLLKRLLSVYSPSMQVSANIETICLQLIGNIGSTIFDIKCSTRDHEDNNLIKMINYPETLPHFFKSFEECIAYNETIKCRRSATRFLWNLRLGTILILEEYTKDAKEQIITVDNELKKILEQIKDGGLGPELENREADFSTIKLDYFSILHAFELLNLYDPYLKLILSLLAKDKIKLRSTAIKCLSMLASKDKVILSNPMVKETIHRRLNDSSASVKDAILDLVSINSSYFEFYQQINNNYNDDSIMVRKHVLRINEKMYDETNDIVTKVYVIARILMKICDEEDNIIDMARLILLNRWILKVHEVLDQPEKLKEISSSVLLVMSRVAIMNEKCSQLFDLFLNFYLLNKEAHSKEAYDKITHVLTILTDFLVQKIVELNSDDTNEKNSIVDKQNFLNLLAKFADSTVSFLTKDHITALYPYMVSDEKSDFHYYILQVFRCTFEKLANFKQKFLYDLETTLLSRLPKMNVREIDEAMPLIWSVATHRHDTARVAKACSSCLSHLHPYINKANNEEAAIVVDGKLQRLIYLSTGFARFCFPKPSNDKIAFLQEGETLYEHITKCLLVLSKDKITHVIRRVAVKNLTKLCGNHPKLFNSRHVLHLLDKEFQSDQLDIKLVILESLYDLFLLEERKSVRNTGVNSTLSSNSILKKKLLKTNRVEFANDGVCSALATRFLDNILQLCLLRDLKNSLVAIRLLKLILKFGYTNPSHSIPTVIALFASTSQYIRHVAYELLEDLFEKYETLVFSSLSRGVTKAIHYSIHTDEKYYYKHDHFLSLLEKLCGTGKKNGPKFFKVLKRIMQSYLDDITDLTSTNSSVQKSIFVLCTNISNITFVSQYDLVSLLKTIDLTTDRLKEVIMDEIGDNVSSLSVSEEKLSGIILIQLSLQDLGTYLLHLYGLRDDVLLLDIVEESELKNKQLPAKKPDISKFSAQLENIEQYSSNGKLLTYFRKHVKDT
notes: Scc2, S. cerevisiae; source: S. cerevisiae W303, in vivo, whole-cell extract
Consider B1, for which the “crosslinking efficiency relative to wild type” value in assay [1] was about 10%. Further, the “fold change of the crosslink against wild-type Smc3 (S72C)” value in assay [2] is about 2 fold.
